Measured values taken from the supplement of paper PMC7877785.
± gives the uncertainty stated by the source.

Assay: self-splicing fitness, log relative to wild type (ln ratio); higher = more splicing; Tetrahymena group I intron in knt gene, E. coli kanamycin selection, DiMSum; sequences stand for … in CUCUCU…GGAGGGAAAAGUUAUCAGGCAUGCACCUGGUAGCUAGUCUUUAAACCAAUAGAUUGCAUCGGUUUAAAAGGCAAGACCGUCAAAUUGCGGGAAAGGGGUCAACAGCCGUUCAGUACCAAGUCUCAGGGGAAACUUUGAGAUGGCCUUGCAAAGGGUAUGGUAAUAAGCUGACGGACAUGGUCCUAACCACGCAGCCAAGUCCUAAGUCAACAGAUCUUCUGUUGAUAUGGAUGCAGUUCACAGACUAAAUGUCGGUCGGGGAAGAUGUAUUCUUCUCAUAAGAUAUAGUCGGACCUCUCCUUAAUGGGAGCUAGCGGAUGAAGUGAUGCAACACUGGAGCCGCUGGGAACUAAUUUGUAUGCGAAAGUAUAUUGAUUAGUUUUGGAGUACUCGUGGUCG
Summary of the method: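 Pooled colonies went to amplicon sequencing on an Illumina HiSeq 2500 after six replicate transformations. The plates were LB agar with 100 μg/mL carbenicillin, 50 μM IPTG and 0.2% rhamnose, with or without 25 μg/mL kanamycin, incubated overnight at 37°C or 30°C. The E. coli BL21(DE3) library had all eight P1ex-region intron nucleotides randomised, the intron placed in the knt kanamycin-resistance gene on pET-22b(+). DiMSum fitness is the error-weighted combination of replicate fold changes, kanamycin against none, normalised to wild type.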

Row | Sequence | self-splicing fitness (ln) (30 °C) | self-splicing fitness (ln) (37 °C)
1 | AAAAAGCAAUAUUACGACAU | 0.00477 ± 0.011 | 0.11 ± 0.032
2 | AAAAAGCAAUAUUACGACUC | 0.0755 ± 0.088 | 0.373 ± 0.11
3 | AAAAAGCAAUAUUACGACUG | -1.14 ± 0.098 | -0.0274 ± 0.11
4 | AAAAAGCAAUAUUACGAGAU | -2.85 ± 0.13 | -1.86 ± 0.2
5 | AAAAAGCAAUAUUACGAGGC | -4.09 ± 0.33 | -2.57 ± 0.32
6 | AAAAAGCAAUAUUACGAGUU | -1.33 ± 0.065 | -0.488 ± 0.07
7 | AAAAAGCAAUAUUACGAUAC | -2.28 ± 0.16 | -0.696 ± 0.13
8 | AAAAAGCAAUAUUACGCAUA | -1.5 ± 0.11 | -0.715 ± 0.1
9 | AAAAAGCAAUAUUACGCCGC | -2.19 ± 0.43 | -2.01 ± 0.33
10 | AAAAAGCAAUAUUACGCGUA | -1.61 ± 0.083 | -0.153 ± 0.08
11 | AAAAAGCAAUAUUACGCUUU | -4.64 ± 0.27 | -2.32 ± 0.19
12 | AAAAAGCAAUAUUACGGCCU | -0.199 ± 0.069 | 0.253 ± 0.095
13 | AAAAAGCAAUAUUACGUACU | 0.142 ± 0.054 | 0.151 ± 0.077
14 | AAAAAGCAAUAUUACGUAGG | -1.7 ± 0.093 | -1.66 ± 0.11
15 | AAAAAGCAAUAUUACGUCAG | -2.75 ± 0.15 | -1.14 ± 0.13
16 | AAAAAGCAAUAUUACGUGGA | -2.42 ± 0.1 | -1.86 ± 0.1
17 | AAAAAGCAAUAUUACGUGGC | -3.59 ± 0.21 | -1.59 ± 0.14
18 | AAAAAGCAAUAUUACGUUCG | -0.479 ± 0.078 | -1.04 ± 0.1
19 | AAAAAGCAAUAUUACGUUGU | -3.71 ± 0.15 | -2.01 ± 0.14
20 | AAACAGCAAUAUUACGAAAA | -2.95 ± 0.15 | -1.8 ± 0.14
21 | AAACAGCAAUAUUACGAAUC | -4.43 ± 0.46 | -1.54 ± 0.22
22 | AAACAGCAAUAUUACGACGA | -1.32 ± 0.096 | 0.0122 ± 0.099
23 | AAACAGCAAUAUUACGACGC | -1.43 ± 0.081 | -0.718 ± 0.096
24 | AAACAGCAAUAUUACGAGGA | -4 ± 0.26 | -1.97 ± 0.13

Row | Sequence | self-splicing fitness (ln) (30 °C) | self-splicing fitness (ln) (37 °C)
25 | AAACAGCAAUAUUACGAGUG | -2.71 ± 0.075 | -1.8 ± 0.074
26 | AAACAGCAAUAUUACGAUAG | -2.76 ± 0.1 | -2.14 ± 0.12
27 | AAACAGCAAUAUUACGAUUU | -0.279 ± 0.053 | 0.219 ± 0.071
28 | AAACAGCAAUAUUACGCAAC | -3.6 ± 0.29 | -1.93 ± 0.17
29 | AAACAGCAAUAUUACGCACU | -0.221 ± 0.079 | 0.0967 ± 0.091
30 | AAACAGCAAUAUUACGCAGU | -3.42 ± 0.15 | -1.44 ± 0.12
31 | AAACAGCAAUAUUACGCGCA | -0.282 ± 0.081 | -0.19 ± 0.087
32 | AAACAGCAAUAUUACGCGCC | -1.13 ± 0.1 | -0.456 ± 0.12
33 | AAACAGCAAUAUUACGGACU | -0.635 ± 0.097 | -0.406 ± 0.12
34 | AAACAGCAAUAUUACGGGAG | -3.34 ± 0.13 | -2.66 ± 0.14
35 | AAACAGCAAUAUUACGGUAC | -3.52 ± 0.2 | -2.75 ± 0.26
36 | AAACAGCAAUAUUACGUACG | -2.54 ± 0.11 | -0.985 ± 0.11
37 | AAACAGCAAUAUUACGUAUG | -2.03 ± 0.094 | -1.31 ± 0.11
38 | AAACAGCAAUAUUACGUCAC | -4.1 ± 0.23 | -2.59 ± 0.2
39 | AAACAGCAAUAUUACGUGAG | -0.858 ± 0.04 | -0.552 ± 0.064
40 | AAAGAGCAAUAUUACGAAUA | -1.42 ± 0.35 | –
41 | AAAGAGCAAUAUUACGAAUC | -3.27 ± 0.24 | -2.7 ± 0.26
42 | AAAGAGCAAUAUUACGACAA | -2.27 ± 0.23 | -2.95 ± 0.38
43 | AAAGAGCAAUAUUACGACGG | -3.27 ± 0.29 | -2.83 ± 0.43
44 | AAAGAGCAAUAUUACGACUG | -3 ± 0.32 | –
45 | AAAGAGCAAUAUUACGAGGG | -3.04 ± 0.27 | -2.34 ± 0.39
46 | AAAGAGCAAUAUUACGAUCG | -2.55 ± 0.12 | -1.29 ± 0.15
47 | AAAGAGCAAUAUUACGCCGU | -3.07 ± 0.48 | -1.74 ± 0.42
48 | AAAGAGCAAUAUUACGCGUG | -3.02 ± 0.14 | -1.79 ± 0.12

Row | Sequence | self-splicing fitness (ln) (30 °C) | self-splicing fitness (ln) (37 °C)
49 | AAAGAGCAAUAUUACGGAAU | -2.79 ± 0.19 | -2.57 ± 0.27
50 | AAAGAGCAAUAUUACGGAGC | -2.8 ± 0.39 | –
51 | AAAGAGCAAUAUUACGGAUA | -2.75 ± 0.27 | -1.92 ± 0.3
52 | AAAGAGCAAUAUUACGGAUU | -0.754 ± 0.18 | -1.45 ± 0.17
53 | AAAGAGCAAUAUUACGGCAG | -4.02 ± 0.42 | -3.07 ± 0.29
54 | AAAGAGCAAUAUUACGGCCU | -2.16 ± 0.13 | -0.199 ± 0.13
55 | AAAGAGCAAUAUUACGGGGA | -2.48 ± 0.35 | -1.81 ± 0.28
56 | AAAGAGCAAUAUUACGUAAU | -2.16 ± 0.15 | 0.0244 ± 0.13
57 | AAAGAGCAAUAUUACGUCCA | -1.76 ± 0.33 | -1.93 ± 0.36
58 | AAAGAGCAAUAUUACGUCUC | -3.18 ± 0.29 | -1.47 ± 0.18
59 | AAAGAGCAAUAUUACGUGAC | -4.21 ± 0.21 | -2.62 ± 0.2
60 | AAAGAGCAAUAUUACGUGCA | -2.3 ± 0.14 | -1.19 ± 0.13
61 | AAAGAGCAAUAUUACGUUAG | -3.49 ± 0.15 | -3.11 ± 0.25
62 | AAAGAGCAAUAUUACGUUAU | -3.71 ± 0.25 | -2.49 ± 0.23
63 | AAAUAGCAAUAUUACGAAAA | -2.66 ± 0.35 | -1.47 ± 0.22
64 | AAAUAGCAAUAUUACGAACA | -0.981 ± 0.14 | -0.0486 ± 0.12
65 | AAAUAGCAAUAUUACGAAUC | -2.64 ± 0.18 | -2.29 ± 0.22
66 | AAAUAGCAAUAUUACGAGUG | -2.42 ± 0.12 | -0.435 ± 0.1
67 | AAAUAGCAAUAUUACGAUAC | -2.95 ± 0.22 | -2.64 ± 0.36
68 | AAAUAGCAAUAUUACGCAAC | -3.16 ± 0.37 | -1.53 ± 0.26
69 | AAAUAGCAAUAUUACGCCUA | -0.886 ± 0.13 | -0.23 ± 0.13
70 | AAAUAGCAAUAUUACGCGAU | -3.4 ± 0.2 | -1.47 ± 0.14
71 | AAAUAGCAAUAUUACGCGCU | -0.381 ± 0.15 | -0.606 ± 0.19
72 | AAAUAGCAAUAUUACGCGUU | -2.16 ± 0.087 | -1.22 ± 0.092

Row | Sequence | self-splicing fitness (ln) (30 °C) | self-splicing fitness (ln) (37 °C)
73 | AAAUAGCAAUAUUACGCUAC | – | -1.68 ± 0.3
74 | AAAUAGCAAUAUUACGCUAG | -1.55 ± 0.13 | -1 ± 0.15
75 | AAAUAGCAAUAUUACGGAGG | -3.39 ± 0.2 | -2.86 ± 0.26
76 | AAAUAGCAAUAUUACGGGCC | -2.49 ± 0.32 | -2.55 ± 0.41
77 | AAAUAGCAAUAUUACGGUAA | -2.14 ± 0.21 | -1.5 ± 0.16
78 | AAAUAGCAAUAUUACGGUAC | -3.61 ± 0.25 | -2.6 ± 0.3
79 | AAAUAGCAAUAUUACGGUUC | -1.21 ± 0.11 | -0.851 ± 0.16
80 | AAAUAGCAAUAUUACGUAUC | -3.12 ± 0.28 | -1.51 ± 0.19
81 | AAAUAGCAAUAUUACGUAUG | -2.64 ± 0.12 | -2.08 ± 0.13
82 | AAAUAGCAAUAUUACGUCUA | -0.412 ± 0.077 | 0.205 ± 0.084
83 | AAAUAGCAAUAUUACGUCUU | 0.225 ± 0.074 | 0.263 ± 0.092
84 | AAAUAGCAAUAUUACGUGAA | -3.08 ± 0.12 | -0.845 ± 0.097
85 | AAAUAGCAAUAUUACGUGGA | -3.16 ± 0.13 | -2.11 ± 0.099
86 | AAAUAGCAAUAUUACGUUGC | -2.63 ± 0.23 | -2.98 ± 0.3
87 | AACAAGCAAUAUUACGAAGC | -3.15 ± 0.27 | -2.83 ± 0.38
88 | AACAAGCAAUAUUACGACCC | -0.136 ± 0.22 | 0.116 ± 0.24
89 | AACAAGCAAUAUUACGACGG | -2.3 ± 0.14 | -1.93 ± 0.12
90 | AACAAGCAAUAUUACGAGGC | -3.07 ± 0.15 | -3.27 ± 0.28
91 | AACAAGCAAUAUUACGAUAA | -1.62 ± 0.084 | -1.15 ± 0.11
92 | AACAAGCAAUAUUACGAUGC | -2.67 ± 0.14 | -0.922 ± 0.11
93 | AACAAGCAAUAUUACGCACA | 0.157 ± 0.071 | -0.163 ± 0.094
94 | AACAAGCAAUAUUACGCACC | -0.717 ± 0.097 | -0.435 ± 0.14
95 | AACAAGCAAUAUUACGCCCU | 0.18 ± 0.062 | 0.0436 ± 0.08
96 | AACAAGCAAUAUUACGCCUA | -0.12 ± 0.059 | 0.231 ± 0.065
